{
  "source": "patent US6713265",
  "biological_target": "T1, rat Y4 receptor (rat), Q63447",
  "T1 chain": "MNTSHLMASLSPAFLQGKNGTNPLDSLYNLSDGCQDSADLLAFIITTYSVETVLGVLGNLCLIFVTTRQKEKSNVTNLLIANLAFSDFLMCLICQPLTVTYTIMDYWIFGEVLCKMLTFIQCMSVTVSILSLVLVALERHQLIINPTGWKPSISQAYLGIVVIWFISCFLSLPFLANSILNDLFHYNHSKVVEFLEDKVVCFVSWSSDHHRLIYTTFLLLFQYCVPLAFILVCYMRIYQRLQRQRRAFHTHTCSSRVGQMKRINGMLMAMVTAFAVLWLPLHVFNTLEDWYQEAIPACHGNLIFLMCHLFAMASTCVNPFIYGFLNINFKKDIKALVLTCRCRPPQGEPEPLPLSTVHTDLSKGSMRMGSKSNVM",
  "experiment": "125I-PYY displacement, COS-7 membranes",
  "settings": "remark: other sources report otherwise",
  "data": [
    {"binder": "PAEDLARYYSALRHYINLITRQRY (peptide, UniProt P01304 22-45, looked up)", "note": "[porcine NPY13-36, P01304 22-45]", "values": [
      {"measurement": "Ki", "result": 140, "unit": "nM"}
    ]}
  ]
}
